Source: patent US20100041597A1 (published 2010)
One block for each binder: values may come before it.

Key:
[1] = target: T1, PKC-ε (endogenous, human cell extracts) (human, UniProt Q02156 1-737); assay: Protocol B blot competition, IMR-32 extract, competitor anti-PKC-ε Ab, Band 1; PRE 20 µg
T1 construct: Two bands on the blot, said to be alternate splicing variants; also called PKC-epsilon; PKC-ε Band 1
T1 sequence (looked up): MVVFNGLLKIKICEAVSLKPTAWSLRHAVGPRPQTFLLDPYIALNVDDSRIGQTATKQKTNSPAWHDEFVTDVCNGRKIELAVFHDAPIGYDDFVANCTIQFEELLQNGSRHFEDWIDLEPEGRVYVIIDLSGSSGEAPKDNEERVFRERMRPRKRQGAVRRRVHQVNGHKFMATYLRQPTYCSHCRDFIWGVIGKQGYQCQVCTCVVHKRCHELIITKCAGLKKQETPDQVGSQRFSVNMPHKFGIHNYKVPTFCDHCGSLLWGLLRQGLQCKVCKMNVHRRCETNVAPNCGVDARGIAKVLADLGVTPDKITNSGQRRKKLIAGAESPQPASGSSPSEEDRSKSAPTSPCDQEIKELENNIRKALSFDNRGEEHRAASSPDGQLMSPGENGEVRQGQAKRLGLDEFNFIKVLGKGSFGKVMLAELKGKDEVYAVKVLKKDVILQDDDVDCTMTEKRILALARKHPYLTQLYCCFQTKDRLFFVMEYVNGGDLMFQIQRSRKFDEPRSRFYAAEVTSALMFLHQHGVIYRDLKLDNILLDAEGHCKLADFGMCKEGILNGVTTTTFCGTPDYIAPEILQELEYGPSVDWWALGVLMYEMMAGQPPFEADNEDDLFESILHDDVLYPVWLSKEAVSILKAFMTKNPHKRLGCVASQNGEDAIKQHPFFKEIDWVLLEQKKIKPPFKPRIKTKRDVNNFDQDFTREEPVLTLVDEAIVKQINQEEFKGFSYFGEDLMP
Method: (§1) The ability of the peptides PRE 2 and PRE 3 (see Table 3) to interfere with the binding of a PKC-α-specific polyclonal antibody (Santa Cruz Biotechnology, Inc.) to PKC-α was determined using a modified version of the protocol outlined above in which the test peptide was added directly to the cell extract prior to electrophoresis at a concentration of either 5× or 15× the concentration of the protein applied to each well of the gel for the Western blots (20 μg).
(§2) Peptides PRE 2, PRE 3 and PRE 4 (see Table 3) were tested for their ability to interfere with the binding of isoform-specific polyclonal antibodies (Santa Cruz Biotechnology, Inc.) to PKC-ε using the general protocol described in Example 3. Two bands, representing alternate splicing variants of PKC-ε, were identified on the Western blot using this anti-PKC-ε antibody.

[2] = target: T1, PKC-ε (endogenous, human cell extracts); assay: Protocol B blot competition, IMR-32 extract, competitor anti-PKC-ε Ab, Band 1; PRE 50 µg
Method: as §1, §2

[3] = target: T1, PKC-ε (endogenous, human cell extracts); assay: Protocol B blot competition, IMR-32 extract, competitor anti-PKC-ε Ab, Band 2; PRE 50 µg
Method: as §1, §2

[4] = target: T1, PKC-ε (endogenous, human cell extracts); assay: Protocol B blot competition, IMR-32 extract, competitor anti-PKC-ε Ab, Band 1; PRE 100 µg
Method: as §1, §2

[5] = target: T2, PKC-βII (purified isoform) (Homo sapiens (Human), UniProt P05771 2-621); assay: summary grade, purified isoform ELISA
T2 construct: also called PKC-beta II

[6] = target: T3, PKC-ζ (endogenous, human cell extracts) (human, UniProt Q05513 1-592); assay: Western-blot competition on cell extracts against the anti-PKC-ζ primary antibody; band densitometry
T3 construct: also called PKC-zeta
T3 sequence (looked up): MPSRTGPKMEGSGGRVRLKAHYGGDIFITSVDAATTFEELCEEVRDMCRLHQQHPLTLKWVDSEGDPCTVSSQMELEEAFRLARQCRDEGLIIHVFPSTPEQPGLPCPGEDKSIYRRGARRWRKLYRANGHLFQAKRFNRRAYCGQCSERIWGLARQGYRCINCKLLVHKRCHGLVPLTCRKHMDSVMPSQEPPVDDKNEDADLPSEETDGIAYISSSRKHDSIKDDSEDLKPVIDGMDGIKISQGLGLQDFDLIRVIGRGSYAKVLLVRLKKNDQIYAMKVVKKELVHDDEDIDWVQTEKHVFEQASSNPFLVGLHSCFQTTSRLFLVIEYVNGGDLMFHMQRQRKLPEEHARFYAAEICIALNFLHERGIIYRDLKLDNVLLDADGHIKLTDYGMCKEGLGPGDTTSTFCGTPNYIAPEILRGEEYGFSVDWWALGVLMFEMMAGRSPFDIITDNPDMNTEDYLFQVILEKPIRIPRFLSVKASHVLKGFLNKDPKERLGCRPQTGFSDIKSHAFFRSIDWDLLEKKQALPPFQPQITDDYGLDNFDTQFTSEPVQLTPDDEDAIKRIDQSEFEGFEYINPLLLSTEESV
Method: Binding efficiency and specificity of the peptides PRE 2, 3, 4, 5, 6, 7, 8, 9, 10, 11, 12 and 13 (see Table 3) was also tested using cytoplasmic extracts from different cell lines expressing appropriate PKC isoforms as described for Example 1. Briefly, the protein cytoplasmic extracts were separated by electrophoresis and transferred onto nitrocellulose membranes by standard Western blotting procedures. The bands on the Western blots were detected with matching primary antibodies and alkaline phosphatase conjugated secondary antibody. The bands were then scanned and the relative density measurements obtained.
This procedure to assess the binding characteristics of the PREs is based on competition binding of the PRE with the primary anti-isoform PKC specific antibodies. The lower the measured band density, the greater the binding of the PRE to the PKC isoform. The PREs were added at 10 and 20 times (10×, 20×) the primary antibody concentration, according to classical competition between antigenic peptide and primary antibody. The following cell lines (obtained from the ATCC) were used: H661—NCI human lung carcinoma NSCLC; MDAMB231—human highly invasive breast cancer cell line from pleural effusion; LS180—human colon adenocarcinoma; LnCAP—human prostate adenocarcinoma; CCD16Lu—human lung fibroblasts; Du145—human prostate carcinoma brain metastasis, and T24—human bladder carcinoma.

[7] = target: T4, PKC-βI (purified isoform) (Homo sapiens (Human), UniProt P05771 2-671); assay: summary grade, purified isoform ELISA
T4 construct: also called PKC-beta I

PKC-ε (purified isoform) = target: T5, PKC-ε (purified isoform) (Homo sapiens (Human), UniProt Q02156 1-737); assay: summary grade, purified isoform ELISA
T5 construct: also called PKC-epsilon; PKCepsilon
T5 sequence: T1 sequence (looked up)

T4 sequence (P05771 2-671 limits assumed): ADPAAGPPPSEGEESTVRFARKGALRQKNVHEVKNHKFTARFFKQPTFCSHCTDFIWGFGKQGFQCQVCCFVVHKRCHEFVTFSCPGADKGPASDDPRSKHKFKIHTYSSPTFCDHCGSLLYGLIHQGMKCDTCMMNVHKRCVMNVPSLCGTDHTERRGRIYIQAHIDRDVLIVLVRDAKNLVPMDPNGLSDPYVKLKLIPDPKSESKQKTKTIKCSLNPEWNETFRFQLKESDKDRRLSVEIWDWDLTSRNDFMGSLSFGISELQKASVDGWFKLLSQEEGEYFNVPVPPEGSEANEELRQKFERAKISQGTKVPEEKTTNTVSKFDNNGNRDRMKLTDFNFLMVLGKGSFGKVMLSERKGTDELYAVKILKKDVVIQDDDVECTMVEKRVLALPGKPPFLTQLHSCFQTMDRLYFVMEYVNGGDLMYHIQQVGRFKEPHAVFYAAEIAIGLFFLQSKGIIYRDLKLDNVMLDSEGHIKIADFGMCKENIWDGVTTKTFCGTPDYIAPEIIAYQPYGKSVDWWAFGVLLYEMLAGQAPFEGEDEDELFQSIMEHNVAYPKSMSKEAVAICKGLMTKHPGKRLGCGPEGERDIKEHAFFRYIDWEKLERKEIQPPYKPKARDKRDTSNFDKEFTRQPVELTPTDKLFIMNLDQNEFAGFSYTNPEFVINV
T2 sequence (P05771 other isoform, or with tags, fused parts or gaps limits assumed): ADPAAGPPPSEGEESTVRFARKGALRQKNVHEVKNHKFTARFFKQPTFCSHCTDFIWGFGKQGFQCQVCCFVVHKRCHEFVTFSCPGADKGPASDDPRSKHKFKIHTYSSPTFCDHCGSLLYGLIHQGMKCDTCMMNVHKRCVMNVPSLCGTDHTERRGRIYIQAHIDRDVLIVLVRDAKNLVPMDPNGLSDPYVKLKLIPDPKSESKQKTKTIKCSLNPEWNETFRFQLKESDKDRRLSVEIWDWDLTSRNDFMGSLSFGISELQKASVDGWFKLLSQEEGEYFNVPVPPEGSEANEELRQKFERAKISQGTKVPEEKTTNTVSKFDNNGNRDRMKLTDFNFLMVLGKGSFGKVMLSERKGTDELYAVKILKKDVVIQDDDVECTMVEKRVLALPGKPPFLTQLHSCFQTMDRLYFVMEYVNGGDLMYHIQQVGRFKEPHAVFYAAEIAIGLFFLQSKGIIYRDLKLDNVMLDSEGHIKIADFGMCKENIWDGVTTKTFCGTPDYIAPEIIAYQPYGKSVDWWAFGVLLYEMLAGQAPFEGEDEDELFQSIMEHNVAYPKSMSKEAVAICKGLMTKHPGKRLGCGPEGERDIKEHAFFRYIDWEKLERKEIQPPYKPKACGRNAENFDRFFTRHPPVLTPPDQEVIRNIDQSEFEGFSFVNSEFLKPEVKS

B3: PRE 4 (peptide)
peptide: Ac-KDAQNLIGISI-NH2
notes: Synthetic peptide; also called peptide PRE 4
band intensity [1]: 184
inhibition (%) [1]: 42.9%
relative intensity (%) [1]: 57.1%
band intensity [2]: 0
inhibition (%) [2]: 100%
relative intensity (%) [2]: 0%
band intensity [3]: 0
inhibition (%) [3]: 100%
relative intensity (%) [3]: 0%
band intensity [4]: 0
inhibition (%) [4]: 100%
relative intensity (%) [4]: 0%

B4: PRE 12 (peptide)
peptide: Ac-KDAQNLI-NH2
notes: Synthetic peptide; also called peptide PRE 12; Ac-KDAQNLI-NH2
binding result [7]: no binding (tested: 200 µM)
binding result (PKC-ε (purified isoform)): no binding (tested: 200 µM)

Second part, led by results:

band intensity [1]: 5.12
inhibition (%) [1]: 99%
relative intensity (%) [1]: 0.12%
band intensity [2]: 0
inhibition (%) [2]: 100%
relative intensity (%) [2]: 0%
band intensity [3]: 0
inhibition (%) [3]: 100%
relative intensity (%) [3]: 0%
band intensity [4]: 0
inhibition (%) [4]: 100%
relative intensity (%) [4]: 0%
B1: PRE 3 (peptide)
peptide: Ac-AKGIQEVKGGDAQNLIGISI-NH2
notes: Synthetic peptide; also called peptide PRE 3

binding result [5]: no binding (tested: 200 µM)
B2: PRE 6 (peptide)
peptide: Ac-KDANQLIGISI-NH2
notes: Synthetic peptide; also called peptide PRE 6
binding result [6]: no binding (tested: 20X the primary antibody concentration)

binding result [7]: no binding (tested: 200 µM)
binding result [5]: no binding (tested: 200 µM)
binding result (PKC-ε (purified isoform)): no binding (tested: 200 µM)
B5: PRE 13 (peptide)
peptide: Ac-RDAQNLI-NH2
notes: Synthetic peptide; also called peptide PRE 13; Ac-RDAQNLI-NH2
binding result [6]: no binding (tested: 20X the primary antibody concentration)
